Test system: MCP-TGIRT (GsI-IIC RT) fusion
Assay: cell_activity
Conditions: control used for normalization, HEK293T

nanoluciferase mRNA with MS2 loops hybridized to DNA primer
activity (relative to TGIRT): 1

From patent publication US20240360477
